A word on the IC50: it is the concentration that gives 50% inhibition. Read a low IC50 as greater potency in that assay.

The values that follow come from patent publication US6716811B1, “Compounds having affinity for the granulocyte-colony stimulating factor receptor (G-CSFR) and associated uses” (Affymax, Inc., priority 2000, dated 2004).

Where a SMILES comes first, the peptide text is derived from it. Bridges are numbered along the chain shown (N, C = ends). Roman numbers before positions name the chains, in order.

In test [1] the target is T1, G-CSFR (Homo sapiens, UniProt Q99062).
T1 construct: incubation with soluble G-CSFR harvest; made in house
T1 sequence (Q99062 25-627): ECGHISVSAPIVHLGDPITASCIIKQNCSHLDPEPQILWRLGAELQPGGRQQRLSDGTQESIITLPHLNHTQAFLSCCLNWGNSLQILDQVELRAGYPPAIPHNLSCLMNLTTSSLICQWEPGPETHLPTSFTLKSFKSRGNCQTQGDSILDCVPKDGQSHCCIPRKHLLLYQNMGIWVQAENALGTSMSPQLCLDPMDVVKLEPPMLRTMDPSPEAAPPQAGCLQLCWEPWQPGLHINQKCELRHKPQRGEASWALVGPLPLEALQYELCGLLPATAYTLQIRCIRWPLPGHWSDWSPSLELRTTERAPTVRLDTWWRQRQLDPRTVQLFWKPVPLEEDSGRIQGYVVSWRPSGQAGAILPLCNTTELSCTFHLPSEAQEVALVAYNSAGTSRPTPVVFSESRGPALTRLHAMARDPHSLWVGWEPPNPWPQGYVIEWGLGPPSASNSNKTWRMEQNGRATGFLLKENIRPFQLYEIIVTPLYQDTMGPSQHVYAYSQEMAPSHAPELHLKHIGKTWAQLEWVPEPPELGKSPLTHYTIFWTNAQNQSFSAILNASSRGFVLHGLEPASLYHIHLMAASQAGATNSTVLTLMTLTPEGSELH
Kind of test: G-CSF radioligand binding assay (SPA beads, 125I labeled G-CSF). As to conditions: reduction by 50% of 125I labeled G-CSF bound to immobilized G-CSFR; overnight at 4° C. The procedure:
Streptavidin-coated scintillation proximity assay (SPA) beads (Amersham) were mixed with biotinylated anti-receptor immobilizing antibody (Ab179) followed by incubation with soluble G-CSFR harvest. Receptor-coated SPA beads were washed twice in PBS/0.1% BSA and distributed to wells of a white polystyrene 96-well microtiter plate (Packard). Serial dilutions of peptide or peptide mimetic were mixed with a constant amount of ^125I labeled G-CSF (10^5 cpm; 1290 Ci/mmol) in PBS/0.1% BSA, added to wells containing receptor-coated SPA beads, and incubated overnight at 4° C. The binding of radiolabeled G-CSF to the receptor-coated SPA bead brings the isotope in close proximity to the scintillant, which allows the emitted radiation to stimulate the scintillant to emit light. […] The amount of ^125I labeled G-CSF that was bound at equilibrium was measured by counting the plate in a TopCount (Wallac) microtiter plate luminometer. […] One can determine the concentration at which the peptide or peptide mimetic will reduce by 50% (IC50) the amount of ^125I labeled G-CSF bound to immobilized G-CSFR.

Test [2] deals with T1, G-CSFR. The experiment in a line: Specific binding of peptides to G-CSFR. Conditions: total minus non-specific binding; unlabeled ligand typically G-CSF variant CS17. The source says: Specific binding is binding of a ligand to a specific receptor, as opposed to non-specific binding that is mediated by non-specific interactions. Specific binding may be measured by subtraction of the non-specific binding (measured in the presence of saturating concentrations of unlabeled ligand) from the total binding (measured in the absence of saturating amounts of ligand). Typically, the unlabeled ligand used was a variant of G-CSF in which the cysteine normally found at position 17 was converted to serine (CS17).

Test [3] deals with T2, G-CSFR (Homo sapiens, UniProt Q99062).
T2 sequence (Q99062 25-836): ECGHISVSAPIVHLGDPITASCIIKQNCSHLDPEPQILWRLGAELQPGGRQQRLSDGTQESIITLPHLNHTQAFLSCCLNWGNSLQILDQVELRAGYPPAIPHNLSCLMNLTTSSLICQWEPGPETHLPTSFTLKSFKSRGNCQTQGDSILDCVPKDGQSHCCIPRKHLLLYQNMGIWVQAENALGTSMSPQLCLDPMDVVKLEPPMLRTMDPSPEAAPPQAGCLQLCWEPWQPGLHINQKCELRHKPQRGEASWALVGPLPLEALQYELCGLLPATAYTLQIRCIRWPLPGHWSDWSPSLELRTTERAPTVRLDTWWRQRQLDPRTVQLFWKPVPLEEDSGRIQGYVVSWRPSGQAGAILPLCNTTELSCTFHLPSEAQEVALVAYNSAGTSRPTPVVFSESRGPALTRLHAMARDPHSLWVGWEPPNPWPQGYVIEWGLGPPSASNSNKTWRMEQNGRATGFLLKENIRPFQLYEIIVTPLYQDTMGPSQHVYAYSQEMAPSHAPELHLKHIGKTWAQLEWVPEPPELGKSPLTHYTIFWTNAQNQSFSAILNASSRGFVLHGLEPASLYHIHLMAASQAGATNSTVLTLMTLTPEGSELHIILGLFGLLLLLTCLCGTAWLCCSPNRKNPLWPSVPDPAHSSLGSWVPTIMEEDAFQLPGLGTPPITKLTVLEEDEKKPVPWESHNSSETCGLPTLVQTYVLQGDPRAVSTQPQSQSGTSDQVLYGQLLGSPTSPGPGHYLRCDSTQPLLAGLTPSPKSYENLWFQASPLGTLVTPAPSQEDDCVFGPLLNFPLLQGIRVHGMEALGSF
Kind of test: G-CSF competition binding assay (125I labeled G-CSF, immobilized G-CSFR in microtiter wells). Also on record: made in house. As to conditions: reduction of bound 125I labeled G-CSF; overnight at 4° C. How it is done: Determination of competitive binding was also carried out for a number of peptides. Briefly stated, G-CSFR was purified using standard techniques. The receptor was then immobilized in microtiter plate wells that were coated with acid-treated antibody (A b179) specific for a site on G-CSFR not involved with G-CSF binding. Separately, ^125I was coupled to the natural ligand G-CSF using techniques well known in the art. Test peptides were added to receptor-coated wells and allowed to bind to immobilized receptor for approximately 30 minutes. ^125 labeled G-CSF was then introduced to the wells and incubated overnight at 4°C. Unbound ^125I labeled G-CSF was removed by washing the plate several times followed by measuring the amount of radioactivity that remained in each well using conventional techniques. […] Alternatively, if reduced amounts or no ^125I labeled G-CSF was detected, the peptide did compete.

With `CC(C)C[C@H](NC(=O)[C@H](CCCNC(=N)N)NC(=O)[C@H](CCC(=O)O)NC(=O)[C@H](C)NC(=O)[C@@H](NC(=O)[C@@H](N)CO)[C@@H](C)O)C(=O)N[C@@H](Cc1c[nH]c2ccccc12)C(=O)N[C@@H](Cc1ccccc1)C(=O)N[C@@H](CSSC[C@H](NC(=O)[C@H](Cc1ccccc1)NC(=O)[C@H](Cc1c[nH]c2ccccc12)NC(=O)[C@H](CC(C)C)NC(=O)[C@H](CCCNC(=N)N)NC(=O)[C@H](CCC(=O)O)NC(=O)[C@H](C)NC(=O)[C@@H](NC(=O)[C@@H](N)CO)[C@@H](C)O)C(=O)NCC(N)=O)C(=O)NCC(N)=O` [Example 37] (I: H-STAERLWFCG-NH2 / II: H-STAERLWFCG-NH2; disulfide I:9-II:9), on G-CSFR [1], the IC50 is 0.5 to 200 µM.

In turn, `N=C(N)NCCC[C@H](NC(=O)[C@H](CCC(=O)O)NC(=O)[C@H](CO)NC(=O)[C@H](CC(N)=O)NC(=O)[C@H](CO)NC(=O)[C@@H](N)CCC(N)=O)C(=O)N[C@@H](CCC(=O)O)C(=O)N[C@@H](Cc1c[nH]c2ccccc12)C(=O)N[C@@H](Cc1ccccc1)C(=O)N[C@@H](CSSC[C@H](NC(=O)[C@H](Cc1ccccc1)NC(=O)[C@H](Cc1c[nH]c2ccccc12)NC(=O)[C@H](CCC(=O)O)NC(=O)[C@H](CCCNC(=N)N)NC(=O)[C@H](CCC(=O)O)NC(=O)[C@H](CO)NC(=O)[C@H](CC(N)=O)NC(=O)[C@H](CO)NC(=O)[C@@H](N)CCC(N)=O)C(N)=O)C(N)=O` [Example 39] (I: H-QSNSEREWFC-NH2 / II: H-QSNSEREWFC-NH2; disulfide I:10-II:10) showed an IC50 at G-CSFR [1] of over 200 µM.

On G-CSFR [1], `N=C(N)NCCC[C@H](NC(=O)[C@H](CCC(=O)O)NC(=O)[C@H](CO)NC(=O)[C@H](CC(N)=O)NC(=O)[C@H](CO)NC(=O)[C@@H](N)CCC(N)=O)C(=O)N[C@@H](CCC(=O)O)C(=O)N[C@@H](Cc1c[nH]c2ccccc12)C(=O)N[C@@H](Cc1ccccc1)C(=O)N[C@@H](CSSC[C@H](NC(=O)[C@H](Cc1ccccc1)NC(=O)[C@H](Cc1c[nH]c2ccccc12)NC(=O)[C@H](CCC(=O)O)NC(=O)[C@H](CCCNC(=N)N)NC(=O)[C@H](CCC(=O)O)NC(=O)[C@H](CO)NC(=O)[C@H](CC(N)=O)NC(=O)[C@H](CO)NC(=O)[C@@H](N)CCC(N)=O)C(=O)NCC(N)=O)C(=O)NCC(N)=O` [Example 41] (I: H-QSNSEREWFCG-NH2 / II: H-QSNSEREWFCG-NH2; disulfide I:10-II:10) returned an IC50 of over 200 µM.

In the case of `CC(C)[C@H](NC(=O)[C@H](Cc1c[nH]c2ccccc12)NC(=O)[C@@H](NC(=O)[C@H](Cc1c[nH]c2ccccc12)NC(=O)CNC(=O)[C@H](CO)NC(=O)[C@H](CC(N)=O)NC(=O)[C@H](CO)NC(=O)[C@H](CCC(N)=O)NC(=O)[C@@H](N)CCC(=O)O)C(C)C)C(=O)NCC(=O)NCC(=O)NCC(=O)NCC(=O)N[C@@H](CSSC[C@H](NC(=O)CNC(=O)CNC(=O)CNC(=O)CNC(=O)[C@@H](NC(=O)[C@H](Cc1c[nH]c2ccccc12)NC(=O)[C@@H](NC(=O)[C@H](Cc1c[nH]c2ccccc12)NC(=O)CNC(=O)[C@H](CO)NC(=O)[C@H](CC(N)=O)NC(=O)[C@H](CO)NC(=O)[C@H](CCC(N)=O)NC(=O)[C@@H](N)CCC(=O)O)C(C)C)C(C)C)C(N)=O)C(N)=O` [Example 46] (I: H-EQSNSGWVWVGGGGC-NH2 / II: H-EQSNSGWVWVGGGGC-NH2; disulfide I:15-II:15), the 50% inhibitory concentration (IC50) at G-CSFR [1] was 0.5 to 200 µM.

On G-CSFR [1], “Ac-ESGWVW-NH2 [Example 42, Ac-ESGWVW-CONH2]” had an IC50 of over 200 µM.

Compound “Ac-NSGWVW-NH2 [Example 43, Ac-NSGWVW-CONH2]” gave an IC50 on G-CSFR [1] of over 200 µM.

For the compound CACMLRVVHC [Example 14], in the test with G-CSFR [2], the “Specific Binding?” value is listed as “Yes”. The “Competitive Binding?” value with G-CSFR [3] is reported as “Yes”.

CADEVMHFCC [Example 3]: the “Specific Binding?” value in the test with G-CSFR [2] was “Yes”. Further, in the test with G-CSFR [3], the “Competitive Binding?” value is listed as “Yes”.

For CAGEVMHMCC [Example 1], the “Specific Binding?” value with G-CSFR [2] was “Yes”. Further, in the test with G-CSFR [3], the “Competitive Binding?” value is on record as “Yes”.

In the case of CDPWMFYDLC [Example 7], the “Specific Binding?” value with G-CSFR [2] was “Yes”. Besides, the “Competitive Binding?” value with G-CSFR [3] is listed as “No”.

As to CDVWQLFDRC [Example 4], in the test with G-CSFR [2], the “Specific Binding?” value is listed as “Yes”. For the same compound, in the test with G-CSFR [3], the “Competitive Binding?” value is “Yes”.

CETLCGACFC [Example 15]: the “Specific Binding?” value in the test with G-CSFR [2] was “No”. The “Competitive Binding?” value in the test with G-CSFR [3] is “No”.

For the compound CFWSDWGQTC [Example 11], the “Specific Binding?” value with G-CSFR [2] is “No”. The “Competitive Binding?” value in the test with G-CSFR [3] is recorded as “No”.

For the compound CHANPVWGEC [Example 9], the “Specific Binding?” value with G-CSFR [2] is “No”. Besides, the “Competitive Binding?” value with G-CSFR [3] is “No”.

Consider CNREIEAMCC [Example 2], for which the “Specific Binding?” value with G-CSFR [2] is listed as “Yes”. Further, the “Competitive Binding?” value in the test with G-CSFR [3] was “Yes”.

As for CPDWYQSYMC [Example 12], in the test with G-CSFR [2], the “Specific Binding?” value is listed as “Yes”. The “Competitive Binding?” value in the test with G-CSFR [3] was “Yes”.

For the compound CPHWTSYYMC [Example 13], the “Specific Binding?” value with G-CSFR [2] is given as “Yes”. In addition, the “Competitive Binding?” value in the test with G-CSFR [3] is “Yes”.

With CQRAGYMLAC [Example 8], the “Specific Binding?” value with G-CSFR [2] was “No”. For the same compound, in the test with G-CSFR [3], the “Competitive Binding?” value is recorded as “No”.

Turning to CSFVQLNSIC [Example 5], in the test with G-CSFR [2], the “Specific Binding?” value is given as “Yes”. For the same compound, in the test with G-CSFR [3], the “Competitive Binding?” value is listed as “Yes”.

As for CVPWMFYDLC [Example 6], the “Specific Binding?” value with G-CSFR [2] is on record as “Yes”. Moreover, the “Competitive Binding?” value with G-CSFR [3] is recorded as “No”.

In turn, “H-EQSNSGWVWV-NH2 [Example 35, NH2-EQSNSGWVWV-CONH2]” gave an IC50 at G-CSFR [1] of 0.5 to 200 µM.

“H-EQSNSGWVWVGGGGC-NH2 [Example 45, NH2-EQSNSGWVWVGGGGC-CONH2]”: the IC50 at G-CSFR [1] is 0.5 to 200 µM.

In turn, “H-KSTGGLTAERDAEKRRWLLTHGGE-OH [Example 66]” had an IC50 on G-CSFR [1] of over 200 µM.

In turn, “H-QSNSEREWFC-NH2 [Example 38, NH2-QSNSEREWFC-CONH2]” showed a concentration for half-maximal inhibition (IC50) on G-CSFR [1] of over 200 µM.

With “H-QSNSEREWFCG-NH2 [Example 40, NH2-QSNSEREWFCG-CONH2]”, the IC50 on G-CSFR [1] is over 200 µM.

“H-STAERLWFCG-NH2 [Example 36, NH2-STAERLWFCG-CONH2]”: the IC50 at G-CSFR [1] is over 200 µM.
